From PMC7230020

Biological target: activated RecA (RecA*), E. coli RecA polymerised on ssDNA with ATPγS (E. coli) (UniProt P0A7G6)
Assay: fluorescence polarisation

Chain of activated RecA (RecA*), E. coli RecA polymerised on ssDNA with ATPγS (E. coli) (P0A7G6 whole entry): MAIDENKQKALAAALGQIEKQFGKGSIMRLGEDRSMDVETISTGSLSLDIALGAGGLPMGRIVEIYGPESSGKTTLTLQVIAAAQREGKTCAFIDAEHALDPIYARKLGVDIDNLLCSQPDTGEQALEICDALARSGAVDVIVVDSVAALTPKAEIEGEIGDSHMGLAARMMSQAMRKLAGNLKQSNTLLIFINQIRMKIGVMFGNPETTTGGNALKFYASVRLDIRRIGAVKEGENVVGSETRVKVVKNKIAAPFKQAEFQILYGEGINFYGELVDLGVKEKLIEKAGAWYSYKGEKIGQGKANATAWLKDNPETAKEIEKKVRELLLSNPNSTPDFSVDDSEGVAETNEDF

fold decrease in apparent affinity for RecA* against LexA-S119A	Substance
> 10 fold	LexA G80P, full-length cleavage loop variant (from UniProt P0A7C2 1-202) (natural protein)
> 10 fold	LexA V82M, full-length cleavage loop variant (from UniProt P0A7C2 1-202) (natural protein)
